Results published in doi:10.1101/2020.07.13.201285 (bioRxiv, 2020).

Molecular target: the molecule itself
Assay: cross-linking

B1: recombinant human glutamine:fructose-6-phosphate amidotransferase 2 with C-terminal HisTag (rhGFAT2-his) (enzyme, UniProt O94808 2-682, looked up)
chain: CGIFAYMNYRVPRTRKEIFETLIKGLQRLEYRGYDSAGVAIDGNNHEVKERHIQLVKKRGKVKALDEELYKQDSMDLKVEFETHFGIAHTRWATHGVPSAVNSHPQRSDKGNEFVVIHNGIITNYKDLRKFLESKGYEFESETDTETIAKLIKYVFDNRETEDITFSTLVERVIQQLEGAFALVFKSVHYPGEAVATRRGSPLLIGVRSKYKLSTEQIPILYRTCTLENVKNICKTRMKRLDSSACLHAVGDKAVEFFFASDASAIIEHTNRVIFLEDDDIAAVADGKLSIHRVKRSASDDPSRAIQTLQMELQQIMKGNFSAFMQKEIFEQPESVFNTMRGRVNFETNTVLLGGLKDHLKEIRRCRRLIVIGCGTSYHAAVATRQVLEELTELPVMVELASDFLDRNTPVFRDDVCFFISQSGETADTLLALRYCKDRGALTVGVTNTVGSSISRETDCGVHINAGPEIGVASTKAYTSQFISLVMFGLMMSEDRISLQNRRQEIIRGLRSLPELIKEVLSLEEKIHDLALELYTQRSLLVMGRGYNYATCLEGALKIKEITYMHSEGILAGELKHGPLALIDKQMPVIMVIMKDPCFAKCQNALQQVTARQGRPIILCSKDDTESSKFAYKTIELPHTVDCLQGILSVIPLQLLSFHLAVLRGYDVDFPRNLAKSVTVE
  stoichiometry N: 4
